# Laboratory results reported in IntAct's records for PubMed 19596235.
# B1: Structure-specific endonuclease subunit SLX4 (Homo sapiens), Q8IY92 (parent)
# chain: MKLSVNEAQLGFYLGSLSHLSACPGIDPRSSEDQPESLKTGQMMDESDEDFKELCASFFQRVKKHGIKEVSGERKTQKAASNGTQIRSKLKRTKQTATKTKTLQGPAEKKPPSGSQAPRTKKQRVTKWQASEPAHSVNGEGGVLASAPDPPVLRETAQNTQTGNQQEPSPNLSREKTRENVPNSDSQPPPSCLTTAVPSPSKPRTAQLVLQRMQQFKRADPERLRHASEECSLEAAREENVPKDPQEEMMAGNVYGLGPPAPESDAAVALTLQQEFARVGASAHDDSLEEKGLFFCQICQKNLSAMNVTRREQHVNRCLDEAEKTLRPSVPQIPECPICGKPFLTLKSRTSHLKQCAVKMEVGPQLLLQAVRLQTAQPEGSSSPPMFSFSDHSRGLKRRGPTSKKEPRKRRKVDEAPSEDLLVAMALSRSEMEPGAAVPALRLESAFSERIRPEAENKSRKKKPPVSPPLLLVQDSETTGRQIEDRVALLLSEEVELSSTPPLPASRILKEGWERAGQCPPPPERKQSFLWEGSALTGAWAMEDFYTARLVPPLVPQRPAQGLMQEPVPPLVPPEHSELSERRSPALHGTPTAGCGSRGPSPSASQREHQALQDLVDLAREGLSASPWPGSGGLAGSEGTAGLDVVPGGLPLTGFVVPSQDKHPDRGGRTLLSLGLLVADFGAMVNNPHLSDVQFQTDSGEVLYAHKFVLYARCPLLIQYVNNEGFSAVEDGVLTQRVLLGDVSTEAARTFLHYLYTADTGLPPGLSSELSSLAHRFGVSELVHLCEQVPIATDSEGKPWEEKEAENCESRAENFQELLRSMWADEEEEAETLLKSKDHEEDQENVNEAEMEEIYEFAATQRKLLQEERAAGAGEDADWLEGGSPVSGQLLAGVQVQKQWDKVEEMEPLEPGRDEAATTWEKMGQCALPPPQGQHSGARGAEAPEQEAPEEALGHSSCSSPSRDCQAERKEGSLPHSDDAGDYEQLFSSTQGEISEPSQITSEPEEQSGAVRERGLEVSHRLAPWQASPPHPCRFLLGPPQGGSPRGSHHTSGSSLSTPRSRGGTSQVGSPTLLSPAVPSKQKRDRSILTLSKEPGHQKGKERRSVLECRNKGVLMFPEKSPSIDLTQSNPDHSSSRSQKSSSKLNEEDEVILLLDSDEELELEQTKMKSISSDPLEEKKALEISPRSCELFSIIDVDADQEPSQSPPRSEAVLQQEDEGALPENRGSLGRRGAPWLFCDRESSPSEASTTDTSWLVPATPLASRSRDCSSQTQISSLRSGLAVQAVTQHTPRASVGNREGNEVAQKFSVIRPQTPPPQTPSSCLTPVSPGTSDGRRQGHRSPSRPHPGGHPHSSPLAPHPISGDRAHFSRRFLKHSPPGPSFLNQTPAGEVVEVGDSDDEQEVASHQANRSPPLDSDPPIPIDDCCWHMEPLSPIPIDHWNLERTGPLSTSSPSRRMNEAADSRDCRSPGLLDTTPIRGSCTTQRKLQEKSSGAGSLGNSRPSFLNSALWDVWDGEEQRPPETPPPAQMPSAGGAQKPEGLETPKGANRKKNLPPKVPITPMPQYSIMETPVLKKELDRFGVRPLPKRQMVLKLKEIFQYTHQTLDSDSEDESQSSQPLLQAPHCQTLASQTYKPSRAGVHAQQEATTGPGAHRPKGPAKTKGPRHQRKHHESITPPSRSPTKEAPPGLNDDAQIPASQESVATSVDGSDSSLSSQSSSSCEFGAAFESAGEEEGEGEVSASQAAVQAADTDEALRCYIRSKPALYQKVLLYQPFELRELQAELRQNGLRVSSRRLLDFLDTHCITFTTAATRREKLQGRRRQPRGKKKVERN
# Variants of: B1
# Conditions: with plk1_human PLK1, P53350
# Sequence of plk1_human PLK1, P53350 (P53350 whole entry): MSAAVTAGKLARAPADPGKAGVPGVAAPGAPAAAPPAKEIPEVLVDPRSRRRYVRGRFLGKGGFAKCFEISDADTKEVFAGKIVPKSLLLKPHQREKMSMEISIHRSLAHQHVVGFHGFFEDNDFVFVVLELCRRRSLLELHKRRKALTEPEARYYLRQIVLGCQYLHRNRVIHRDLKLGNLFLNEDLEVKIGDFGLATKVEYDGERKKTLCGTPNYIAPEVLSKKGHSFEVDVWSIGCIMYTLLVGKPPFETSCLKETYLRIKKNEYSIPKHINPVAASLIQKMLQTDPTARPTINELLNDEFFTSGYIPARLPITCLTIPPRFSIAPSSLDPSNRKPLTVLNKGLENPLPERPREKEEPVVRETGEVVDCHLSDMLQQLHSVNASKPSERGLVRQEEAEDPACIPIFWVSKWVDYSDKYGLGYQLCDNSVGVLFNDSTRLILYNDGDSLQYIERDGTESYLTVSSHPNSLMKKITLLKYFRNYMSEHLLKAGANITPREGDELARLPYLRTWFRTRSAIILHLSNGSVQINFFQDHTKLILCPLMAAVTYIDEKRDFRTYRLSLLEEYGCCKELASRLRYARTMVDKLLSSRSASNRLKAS
row,Variant,effect of a mutation on the interaction
1,S1453A,decreasing interaction
